Among the data in patent US7220822 are koff and kon values, retold here.

The target in the test is CD80-Ig (extracellular domain of CD80 fused with the constant region of mouse IgG1 heavy chain) (mouse). The test is described as follows: SPR, CD28-Ig (187 nM to 12 µM) over CD80-Ig captured by anti-mouse IgG1 Fc.

With CD28-Ig (Fc fusion), the dissociation rate constant (koff) was found to be 0.563 s⁻¹ and the association rate constant (kon) stood at 138000 M⁻¹ s⁻¹.

The term koff denotes the rate constant with which the complex falls apart. Low values mean slow dissociation, high ones fast dissociation. As usually defined, the kon is the rate constant with which the complex forms. A lower kon goes with slow association.
